Patent CN117866903A (BEILAI PHARMACEUTICAL CO LTD, dated 2024)

B1: 单域抗体1-C3 (Fc fusion)
chain: DVQLVESGGGLVEPGESLRLSCAAPGEDLGYYAIAWFRQAPGKEREVVSCVTSSGSSTNYLSSVKDRFTISIDNAKNTVYLQMNSLKPEDTAVYYCASTILLCSDYISAFGTWGQGTQVTVAS
notes: not shown: human IgG1 Fc of vector pcDNA3.4-hIgG1-Fc
B2: 单域抗体3-H10 (Fc fusion)
chain: EVQLVESGGGLVQPGGSLRLSCAASGFSIHIYAMGWYRQAPGKQRELVATITRGGVTNNADSVKGRFTISRDNAKNTAYLQMNSLKPEDTAVYYCNAGGTNGGYWGQGTQVTVSS
notes: as for B1
B3: 阳性对照抗体Ixekizumab (antibody, human IgG4 S228P, kappa, V domains shown)
VH: QVQLVQSGAEVKKPGSSVKVSCKASGYSFTDYHIHWVRQAPGQGLEWMGVINPMYGTTDYNQRFKGRVTITADESTSTAYMELSSLRSEDTAVYYCARYDYFTGTGVYWGQGTLVTVSS
VL: DIVMTQTPLSLSVTPGQPASISCRSSRSLVHSRGNTYLHWYLQKPGQSPQLLIYKVSNRFIGVPDRFSGSGSGTDFTLKISRVEAEDVGVYYCSQSTHLPFTFGQGTKLEIKR
notes: also called 阳性抗体; 依奇珠单抗
B4: 串联单域抗体1-C3-3-H10 (VHH-(GGGGS)3-VHH-IgG1 Fc) (Fc fusion)
chain: DVQLVESGGGLVEPGESLRLSCAAPGEDLGYYAIAWFRQAPGKEREVVSCVTSSGSSTNYLSSVKDRFTISIDNAKNTVYLQMNSLKPEDTAVYYCASTILLCSDYISAFGTWGQGTQVTVASGGGGSGGGGSGGGGSEVQLVESGGGLVQPGGSLRLSCAASGFSIHIYAMGWYRQAPGKQRELVATITRGGVTNNADSVKGRFTISRDNAKNTAYLQMNSLKPEDTAVYYCNAGGTNGGYWGQGTQVTVSS
notes: also called C3-H10; C3-H10重组蛋白; not shown: human IgG1 Fc

Assays:
[1] = molecular target: T1, Human IL-17A重组蛋白 (Gly 24-Ala 155, C端6×His) (human, biotinylated in the ELISA of paragraph 251 (Biotin-IL-17A-His)); test: ELISA: antibody coated at 2 μg/mL, Biotin-IL-17A-His titrated from 10 μg/mL (5-fold, 7 points), HRP-streptavidin
[2] = molecular target: T1, Human IL-17A重组蛋白 (Gly 24-Ala 155, …); test: BLI (ForteBio OCTET R2): IL-17A-His at 5 μg/mL on HIS1K sensor, antibody 50-3.13 nM, 25℃
[3] = molecular target: T1, Human IL-17A重组蛋白 (Gly 24-Ala 155, …); test: cell-based or functional assay

T1 sequence (chain, as listed by the source): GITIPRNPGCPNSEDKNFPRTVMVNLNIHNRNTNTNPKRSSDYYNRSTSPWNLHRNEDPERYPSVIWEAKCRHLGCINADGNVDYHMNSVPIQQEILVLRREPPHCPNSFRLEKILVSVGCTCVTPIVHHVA

| Binder | EC50 [1] [µg/mL] | Kd [2] [nM] | 串联单域抗体阻断活性检测 (293F-IL-17RA-IL-17Rc-ACT1-NFκB-Luc报告基因细胞株), IC50 [3] [nM] |
| --- | --- | --- | --- |
| B1 | 5.28 |  |  |
| B2 | 1.22 |  |  |
| B3 | 10.1 | 0.391 | 2.23 |
| B4 | 1.13 | 1.32 | 0.63 |
